Target: 80S ribosomes from yeast cells expressing wild-type rpL10 (S. cerevisiae) (UniProt P41805)
Assay: steady-state binding of [32P]-Sdo1p; ribosomes held on cysteine-charged sulfolink resin, unbound Sdo1p in the flow-through counted; 2 pmol ribosomes with 0.25–32 pmol Sdo1p and 100 µg polyU in 50 mM Tris-(OAc)2 pH 7.5, 50 mM NH4(OAc)2, 10 mM Mg(OAc)2, 2 mM DTT, 50 µl, 30°C 20 min

Chain of UniProt P41805 (P41805 whole entry, looked up): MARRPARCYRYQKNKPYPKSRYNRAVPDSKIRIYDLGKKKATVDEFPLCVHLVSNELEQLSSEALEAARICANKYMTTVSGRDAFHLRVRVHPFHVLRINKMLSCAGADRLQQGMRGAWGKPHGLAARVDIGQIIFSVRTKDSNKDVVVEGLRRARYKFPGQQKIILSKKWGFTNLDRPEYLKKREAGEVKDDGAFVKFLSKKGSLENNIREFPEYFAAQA

- stoichiometry N: 1
B1: Sdo1p with a C-terminal 6× histidine tag and the phosphorylatable kemptide (natural protein)
chain: MPINQPSGQIKLTNVSLVRLKKARKRFEVACYQNKVQDYRKGIEKDLDEVLQIHQVFMNVSKGLVANKEDLQKCFGTTNVDDVIEEIMHKGEIQLSEKERQLMLNKVNNEMLTIVSAKCINPVSKKRYPPTMIHKALQELKFSPVINKPAKLQALEAIKLLVSKQIIPIVRAKMKVKVAISEPSRQPELIEKISKLIASSPGESTKPELDPWTCTGLIDPVNYRDLMTLCDKKGTVQVLDMAVIDNTTHN
modifications: 32P-phosphate on the kemptide (labelled with PKA and [32P]-γ-ATP, 40–60% label incorporation)
